Source: patent US20250218531A1 (ABSCI, published 2025)
Where “and” joins values, the source holds several entries; their conditions need not be identical. Identical values can stand only once.

B1: Trastuzumab HCDR3 variant ARYGGLGGYTLAY (Fab, V domains shown)
VH: EVQLVESGGGLVQPGGSLRLSCAASGFNIKDTYIHWVRQAPGKGLEWVARIYPTNGYTRYADSVKGRFTISADTSKNTAYLQMNSLRAEDTAVYYCARYGGLGGYTLAYWGQGTLVTVSS
VL: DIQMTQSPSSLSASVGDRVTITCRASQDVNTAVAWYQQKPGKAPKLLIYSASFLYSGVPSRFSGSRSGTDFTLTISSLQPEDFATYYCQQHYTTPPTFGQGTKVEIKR
B2: Trastuzumab HCDR3 variant ARYYYDFGYYFDY (Fab, V domains shown)
VH: EVQLVESGGGLVQPGGSLRLSCAASGFNIKDTYIHWVRQAPGKGLEWVARIYPTNGYTRYADSVKGRFTISADTSKNTAYLQMNSLRAEDTAVYYCARYYYDFGYYFDYWGQGTLVTVSS
VL: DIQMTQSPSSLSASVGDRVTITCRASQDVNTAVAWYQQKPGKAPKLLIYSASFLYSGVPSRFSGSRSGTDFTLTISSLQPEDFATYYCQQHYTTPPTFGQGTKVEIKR
B3: Trastuzumab HCDR3 variant ARYYSDYSYTFSY (Fab, V domains shown)
VH: EVQLVESGGGLVQPGGSLRLSCAASGFNIKDTYIHWVRQAPGKGLEWVARIYPTNGYTRYADSVKGRFTISADTSKNTAYLQMNSLRAEDTAVYYCARYYSDYSYTFSYWGQGTLVTVSS
VL: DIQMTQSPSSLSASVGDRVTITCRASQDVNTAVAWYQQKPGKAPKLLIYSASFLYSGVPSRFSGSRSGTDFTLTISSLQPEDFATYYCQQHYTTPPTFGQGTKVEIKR
B4: Trastuzumab HCDR3 variant ASSGRLDLYDFRL (Fab, V domains shown)
VH: EVQLVESGGGLVQPGGSLRLSCAASGFNIKDTYIHWVRQAPGKGLEWVARIYPTNGYTRYADSVKGRFTISADTSKNTAYLQMNSLRAEDTAVYYCASSGRLDLYDFRLWGQGTLVTVSS
VL: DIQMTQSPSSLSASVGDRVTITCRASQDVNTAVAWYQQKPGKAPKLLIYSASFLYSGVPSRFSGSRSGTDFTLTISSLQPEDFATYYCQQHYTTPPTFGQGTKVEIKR
B5: Trastuzumab HCDR3 variant ATGYGYLLYSDHD (Fab, V domains shown)
VH: EVQLVESGGGLVQPGGSLRLSCAASGFNIKDTYIHWVRQAPGKGLEWVARIYPTNGYTRYADSVKGRFTISADTSKNTAYLQMNSLRAEDTAVYYCATGYGYLLYSDHDWGQGTLVTVSS
VL: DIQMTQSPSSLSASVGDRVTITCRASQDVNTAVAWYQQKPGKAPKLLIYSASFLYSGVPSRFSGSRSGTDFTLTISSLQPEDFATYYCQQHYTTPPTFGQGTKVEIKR
B6: Trastuzumab HCDR3 variant ARYPSGYYYYFDY (Fab, V domains shown)
VH: EVQLVESGGGLVQPGGSLRLSCAASGFNIKDTYIHWVRQAPGKGLEWVARIYPTNGYTRYADSVKGRFTISADTSKNTAYLQMNSLRAEDTAVYYCARYPSGYYYYFDYWGQGTLVTVSS
VL: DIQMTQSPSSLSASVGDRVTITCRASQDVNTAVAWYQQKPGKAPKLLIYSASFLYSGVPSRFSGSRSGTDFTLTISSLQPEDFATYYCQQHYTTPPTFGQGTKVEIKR
B7: Trastuzumab HCDR3 variant ATGSGGGGFSYGY (Fab, V domains shown)
VH: EVQLVESGGGLVQPGGSLRLSCAASGFNIKDTYIHWVRQAPGKGLEWVARIYPTNGYTRYADSVKGRFTISADTSKNTAYLQMNSLRAEDTAVYYCATGSGGGGFSYGYWGQGTLVTVSS
VL: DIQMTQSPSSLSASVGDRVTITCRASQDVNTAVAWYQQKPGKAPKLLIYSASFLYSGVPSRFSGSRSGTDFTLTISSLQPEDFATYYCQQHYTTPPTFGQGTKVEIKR
B8: Trastuzumab HCDR3 variant ARYMRPAFYPFLY (Fab, V domains shown)
VH: EVQLVESGGGLVQPGGSLRLSCAASGFNIKDTYIHWVRQAPGKGLEWVARIYPTNGYTRYADSVKGRFTISADTSKNTAYLQMNSLRAEDTAVYYCARYMRPAFYPFLYWGQGTLVTVSS
VL: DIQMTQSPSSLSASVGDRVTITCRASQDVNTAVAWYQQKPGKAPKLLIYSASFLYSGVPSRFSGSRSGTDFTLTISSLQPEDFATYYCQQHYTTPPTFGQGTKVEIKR
B9: Trastuzumab HCDR3 variant ARYGPYYYYAMDY (Fab, V domains shown)
VH: EVQLVESGGGLVQPGGSLRLSCAASGFNIKDTYIHWVRQAPGKGLEWVARIYPTNGYTRYADSVKGRFTISADTSKNTAYLQMNSLRAEDTAVYYCARYGPYYYYAMDYWGQGTLVTVSS
VL: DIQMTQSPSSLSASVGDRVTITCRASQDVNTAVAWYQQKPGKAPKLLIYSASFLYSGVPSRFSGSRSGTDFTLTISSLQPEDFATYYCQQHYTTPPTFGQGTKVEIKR
B10: Trastuzumab HCDR3 variant ARYVTANTYSYDP (Fab, V domains shown)
VH: EVQLVESGGGLVQPGGSLRLSCAASGFNIKDTYIHWVRQAPGKGLEWVARIYPTNGYTRYADSVKGRFTISADTSKNTAYLQMNSLRAEDTAVYYCARYVTANTYSYDPWGQGTLVTVSS
VL: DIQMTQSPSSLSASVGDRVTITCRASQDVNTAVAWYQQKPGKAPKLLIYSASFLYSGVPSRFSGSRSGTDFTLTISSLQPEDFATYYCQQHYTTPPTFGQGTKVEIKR
B11: Trastuzumab HCDR3 variant ASYYAPGSYGFDP (Fab, V domains shown)
VH: EVQLVESGGGLVQPGGSLRLSCAASGFNIKDTYIHWVRQAPGKGLEWVARIYPTNGYTRYADSVKGRFTISADTSKNTAYLQMNSLRAEDTAVYYCASYYAPGSYGFDPWGQGTLVTVSS
VL: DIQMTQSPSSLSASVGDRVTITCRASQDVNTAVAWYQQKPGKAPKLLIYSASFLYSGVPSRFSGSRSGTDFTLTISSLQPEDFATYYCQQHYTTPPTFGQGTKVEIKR
B12: Trastuzumab HCDR3 variant ARYLTDADFRLHY (Fab, V domains shown)
VH: EVQLVESGGGLVQPGGSLRLSCAASGFNIKDTYIHWVRQAPGKGLEWVARIYPTNGYTRYADSVKGRFTISADTSKNTAYLQMNSLRAEDTAVYYCARYLTDADFRLHYWGQGTLVTVSS
VL: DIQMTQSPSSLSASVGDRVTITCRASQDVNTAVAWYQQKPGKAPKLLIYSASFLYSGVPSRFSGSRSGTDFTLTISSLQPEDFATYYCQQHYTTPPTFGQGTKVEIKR
B13: Trastuzumab HCDR3 variant ARYGYGAYYYFDY (Fab, V domains shown)
VH: EVQLVESGGGLVQPGGSLRLSCAASGFNIKDTYIHWVRQAPGKGLEWVARIYPTNGYTRYADSVKGRFTISADTSKNTAYLQMNSLRAEDTAVYYCARYGYGAYYYFDYWGQGTLVTVSS
VL: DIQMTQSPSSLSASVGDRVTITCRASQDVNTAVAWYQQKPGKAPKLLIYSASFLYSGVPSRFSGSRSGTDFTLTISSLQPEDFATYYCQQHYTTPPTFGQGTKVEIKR
B14: Trastuzumab HCDR3 variant AVYGPYGGFSYDS (Fab, V domains shown)
VH: EVQLVESGGGLVQPGGSLRLSCAASGFNIKDTYIHWVRQAPGKGLEWVARIYPTNGYTRYADSVKGRFTISADTSKNTAYLQMNSLRAEDTAVYYCAVYGPYGGFSYDSWGQGTLVTVSS
VL: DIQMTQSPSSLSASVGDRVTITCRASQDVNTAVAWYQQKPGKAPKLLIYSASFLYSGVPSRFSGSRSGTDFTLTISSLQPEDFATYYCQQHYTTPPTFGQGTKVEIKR
B15: Trastuzumab HCDR3 variant ASVDLGGFYDFRY (Fab, V domains shown)
VH: EVQLVESGGGLVQPGGSLRLSCAASGFNIKDTYIHWVRQAPGKGLEWVARIYPTNGYTRYADSVKGRFTISADTSKNTAYLQMNSLRAEDTAVYYCASVDLGGFYDFRYWGQGTLVTVSS
VL: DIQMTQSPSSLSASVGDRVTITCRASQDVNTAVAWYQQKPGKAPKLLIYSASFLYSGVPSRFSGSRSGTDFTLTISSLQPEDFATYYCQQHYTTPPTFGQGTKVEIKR
B16: Trastuzumab HCDR3 variant ARYGTGTYYYFLH (Fab, V domains shown)
VH: EVQLVESGGGLVQPGGSLRLSCAASGFNIKDTYIHWVRQAPGKGLEWVARIYPTNGYTRYADSVKGRFTISADTSKNTAYLQMNSLRAEDTAVYYCARYGTGTYYYFLHWGQGTLVTVSS
VL: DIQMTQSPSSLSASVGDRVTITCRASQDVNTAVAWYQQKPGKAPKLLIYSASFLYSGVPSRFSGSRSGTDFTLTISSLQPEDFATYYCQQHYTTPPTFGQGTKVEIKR
B17: Trastuzumab HCDR3 variant ARYGRNGSYSYDY (Fab, V domains shown)
VH: EVQLVESGGGLVQPGGSLRLSCAASGFNIKDTYIHWVRQAPGKGLEWVARIYPTNGYTRYADSVKGRFTISADTSKNTAYLQMNSLRAEDTAVYYCARYGRNGSYSYDYWGQGTLVTVSS
VL: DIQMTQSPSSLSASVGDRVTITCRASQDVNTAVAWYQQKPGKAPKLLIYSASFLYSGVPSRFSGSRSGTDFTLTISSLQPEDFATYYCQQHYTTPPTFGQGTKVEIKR
B18: Trastuzumab HCDR3 variant ARYGGYGNYWFDT (Fab, V domains shown)
VH: EVQLVESGGGLVQPGGSLRLSCAASGFNIKDTYIHWVRQAPGKGLEWVARIYPTNGYTRYADSVKGRFTISADTSKNTAYLQMNSLRAEDTAVYYCARYGGYGNYWFDTWGQGTLVTVSS
VL: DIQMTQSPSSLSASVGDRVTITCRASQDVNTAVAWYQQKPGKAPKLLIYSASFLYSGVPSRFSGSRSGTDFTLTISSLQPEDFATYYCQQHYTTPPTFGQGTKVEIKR
B19: Trastuzumab HCDR3 variant ARYGGLSYYSFDL (Fab, V domains shown)
VH: EVQLVESGGGLVQPGGSLRLSCAASGFNIKDTYIHWVRQAPGKGLEWVARIYPTNGYTRYADSVKGRFTISADTSKNTAYLQMNSLRAEDTAVYYCARYGGLSYYSFDLWGQGTLVTVSS
VL: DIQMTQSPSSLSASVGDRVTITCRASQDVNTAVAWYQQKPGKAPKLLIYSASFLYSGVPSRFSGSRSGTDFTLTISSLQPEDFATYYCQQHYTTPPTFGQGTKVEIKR
B20: Trastuzumab HCDR3 variant ARYIFGGPYYFDY (Fab, V domains shown)
VH: EVQLVESGGGLVQPGGSLRLSCAASGFNIKDTYIHWVRQAPGKGLEWVARIYPTNGYTRYADSVKGRFTISADTSKNTAYLQMNSLRAEDTAVYYCARYIFGGPYYFDYWGQGTLVTVSS
VL: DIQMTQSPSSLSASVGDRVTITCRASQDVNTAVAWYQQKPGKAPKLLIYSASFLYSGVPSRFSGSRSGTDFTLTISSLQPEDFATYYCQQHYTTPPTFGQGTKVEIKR
B21: Trastuzumab HCDR3 variant ARYYYDYGYYFDV (Fab, V domains shown)
VH: EVQLVESGGGLVQPGGSLRLSCAASGFNIKDTYIHWVRQAPGKGLEWVARIYPTNGYTRYADSVKGRFTISADTSKNTAYLQMNSLRAEDTAVYYCARYYYDYGYYFDVWGQGTLVTVSS
VL: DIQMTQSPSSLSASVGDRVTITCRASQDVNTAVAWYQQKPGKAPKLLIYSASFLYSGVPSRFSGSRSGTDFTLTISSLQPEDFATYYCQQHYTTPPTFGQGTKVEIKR
B22: Trastuzumab HCDR3 variant ARYPNYGFYMFDY (Fab, V domains shown)
VH: EVQLVESGGGLVQPGGSLRLSCAASGFNIKDTYIHWVRQAPGKGLEWVARIYPTNGYTRYADSVKGRFTISADTSKNTAYLQMNSLRAEDTAVYYCARYPNYGFYMFDYWGQGTLVTVSS
VL: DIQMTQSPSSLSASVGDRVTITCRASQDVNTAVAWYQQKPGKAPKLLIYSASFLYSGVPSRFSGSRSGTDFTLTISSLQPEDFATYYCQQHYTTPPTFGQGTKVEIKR
B23: Trastuzumab HCDR3 variant ASYGSGSYFSFPL (Fab, V domains shown)
VH: EVQLVESGGGLVQPGGSLRLSCAASGFNIKDTYIHWVRQAPGKGLEWVARIYPTNGYTRYADSVKGRFTISADTSKNTAYLQMNSLRAEDTAVYYCASYGSGSYFSFPLWGQGTLVTVSS
VL: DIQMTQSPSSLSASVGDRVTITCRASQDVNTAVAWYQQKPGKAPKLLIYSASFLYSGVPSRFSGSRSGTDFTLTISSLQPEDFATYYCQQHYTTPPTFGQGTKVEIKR
B24: Trastuzumab HCDR3 variant ARYGLNHYYVYPY (Fab, V domains shown)
VH: EVQLVESGGGLVQPGGSLRLSCAASGFNIKDTYIHWVRQAPGKGLEWVARIYPTNGYTRYADSVKGRFTISADTSKNTAYLQMNSLRAEDTAVYYCARYGLNHYYVYPYWGQGTLVTVSS
VL: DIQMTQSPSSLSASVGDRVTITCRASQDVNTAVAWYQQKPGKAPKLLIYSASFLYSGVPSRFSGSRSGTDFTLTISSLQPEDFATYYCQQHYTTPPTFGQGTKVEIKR
B25: Trastuzumab HCDR3 variant ARYNPFDGFYFDV (Fab, V domains shown)
VH: EVQLVESGGGLVQPGGSLRLSCAASGFNIKDTYIHWVRQAPGKGLEWVARIYPTNGYTRYADSVKGRFTISADTSKNTAYLQMNSLRAEDTAVYYCARYNPFDGFYFDVWGQGTLVTVSS
VL: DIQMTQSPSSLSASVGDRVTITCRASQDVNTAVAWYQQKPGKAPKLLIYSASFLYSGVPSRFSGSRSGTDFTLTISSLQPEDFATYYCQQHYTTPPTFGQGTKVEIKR
B26: Trastuzumab HCDR3 variant ARYYSYGGYYFDY (Fab, V domains shown)
VH: EVQLVESGGGLVQPGGSLRLSCAASGFNIKDTYIHWVRQAPGKGLEWVARIYPTNGYTRYADSVKGRFTISADTSKNTAYLQMNSLRAEDTAVYYCARYYSYGGYYFDYWGQGTLVTVSS
VL: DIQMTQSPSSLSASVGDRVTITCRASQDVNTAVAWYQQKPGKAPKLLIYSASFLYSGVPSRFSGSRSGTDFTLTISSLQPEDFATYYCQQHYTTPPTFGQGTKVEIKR
B27: Trastuzumab HCDR3 variant ARYPGGGIYDFDP (Fab, V domains shown)
VH: EVQLVESGGGLVQPGGSLRLSCAASGFNIKDTYIHWVRQAPGKGLEWVARIYPTNGYTRYADSVKGRFTISADTSKNTAYLQMNSLRAEDTAVYYCARYPGGGIYDFDPWGQGTLVTVSS
VL: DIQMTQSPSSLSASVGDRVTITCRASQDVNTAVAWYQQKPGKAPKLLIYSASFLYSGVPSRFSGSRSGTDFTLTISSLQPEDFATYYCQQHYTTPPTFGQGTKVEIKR
B28: Trastuzumab HCDR3 variant ARYGYDYYYYFDV (Fab, V domains shown)
VH: EVQLVESGGGLVQPGGSLRLSCAASGFNIKDTYIHWVRQAPGKGLEWVARIYPTNGYTRYADSVKGRFTISADTSKNTAYLQMNSLRAEDTAVYYCARYGYDYYYYFDVWGQGTLVTVSS
VL: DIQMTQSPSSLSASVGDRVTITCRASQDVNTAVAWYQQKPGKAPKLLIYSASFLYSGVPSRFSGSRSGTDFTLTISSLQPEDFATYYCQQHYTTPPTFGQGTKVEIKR
B29: Trastuzumab HCDR3 variant ATSGSVDRYDYVY (Fab, V domains shown)
VH: EVQLVESGGGLVQPGGSLRLSCAASGFNIKDTYIHWVRQAPGKGLEWVARIYPTNGYTRYADSVKGRFTISADTSKNTAYLQMNSLRAEDTAVYYCATSGSVDRYDYVYWGQGTLVTVSS
VL: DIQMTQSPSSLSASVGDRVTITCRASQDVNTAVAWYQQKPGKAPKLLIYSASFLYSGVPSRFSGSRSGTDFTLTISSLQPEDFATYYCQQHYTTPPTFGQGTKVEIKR
B30: Trastuzumab HCDR3 variant ARYGGYGYYWFDY (Fab, V domains shown)
VH: EVQLVESGGGLVQPGGSLRLSCAASGFNIKDTYIHWVRQAPGKGLEWVARIYPTNGYTRYADSVKGRFTISADTSKNTAYLQMNSLRAEDTAVYYCARYGGYGYYWFDYWGQGTLVTVSS
VL: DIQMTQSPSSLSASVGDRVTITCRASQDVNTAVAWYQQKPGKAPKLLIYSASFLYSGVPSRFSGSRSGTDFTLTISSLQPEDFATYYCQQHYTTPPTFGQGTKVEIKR
B31: Trastuzumab HCDR3 variant ARYGLYGSYYFRY (Fab, V domains shown)
VH: EVQLVESGGGLVQPGGSLRLSCAASGFNIKDTYIHWVRQAPGKGLEWVARIYPTNGYTRYADSVKGRFTISADTSKNTAYLQMNSLRAEDTAVYYCARYGLYGSYYFRYWGQGTLVTVSS
VL: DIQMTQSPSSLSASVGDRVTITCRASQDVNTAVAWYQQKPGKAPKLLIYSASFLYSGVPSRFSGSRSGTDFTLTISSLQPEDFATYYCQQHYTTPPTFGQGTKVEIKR

Molecular target: human epidermal growth factor receptor 2 (HER2) extracellular domain (human, UniProt P04626 23-629)
Assay: SPR

| Binder | Kd | log(KD (M)) |
| --- | --- | --- |
| B1 | 42.9 nM | -7.37 log(M) |
| B2 | 42.8 nM | -7.37 log(M) |
| B3 | 112 nM | -6.95 log(M) |
| B4 | 171 nM | -6.77 log(M) |
| B5 | 171 nM | -6.77 log(M) |
| B6 | 90.1 nM | -7.05 log(M) |
| B7 | 182 nM | -6.74 log(M) |
| B8 | 50.9 nM | -7.29 log(M) |
| B9 | 41.3 nM and 41.2 nM | -7.38 log(M) |
| B10 | 83.6 nM and 83.5 nM | -7.08 log(M) |
| B11 | 135 nM | -6.87 log(M) |
| B12 | 75.1 nM | -7.12 log(M) |
| B13 | 54 nM | -7.27 log(M) |
| B14 | 70.7 nM | -7.15 log(M) |
| B15 | 46.1 nM | -7.34 log(M) |
| B16 | 42.3 nM and 42.2 nM | -7.37 log(M) |

| Binder | Kd | log(KD (M)) |
| --- | --- | --- |
| B17 | 38.2 nM | -7.42 log(M) |
| B18 | 42.1 nM | -7.38 log(M) |
| B19 | 58.1 nM | -7.24 log(M) |
| B20 | 36 nM | -7.44 log(M) |
| B21 | 30 nM | -7.52 log(M) |
| B22 | 33.3 nM | -7.48 log(M) |
| B23 | 53.9 nM | -7.27 log(M) |
| B24 | 135 nM | -6.87 log(M) |
| B25 | 156 nM | -6.81 log(M) |
| B26 | 106 nM | -6.98 log(M) |
| B27 | 39.9 nM | -7.4 log(M) |
| B28 | 50 nM | -7.3 log(M) |
| B29 | 155 nM | -6.81 log(M) |
| B30 | 40 nM | -7.4 log(M) |
| B31 | 71.8 nM | -7.14 log(M) |
